Measured values from paper PMC7080496.

Columns and labels:
[1] = target: Adenosine A2A receptor (A2AAR), human, residues 1 to 316, with the M1A/M4T mutation, reconstituted in rHDLs (nanodiscs) (human) (UniProt P29274)
[2] = target: Adenosine A2A receptor (A2AAR), human, residues 1 to 316, with the M1A/M4T mutation, reconstituted in rHDLs (nanodiscs) (human) (UniProt P29274); remark: listed apart in the source
[3] = target: Adenosine A2A receptor (A2AAR), human, residues 1 to 316, with the M1A/M4T mutation, reconstituted in rHDLs (nanodiscs) (human) (UniProt P29274); remark: listed apart in the source

heterotrimeric G protein consisting of human Gαs, bovine Gβ1, and human Gγ2, sequence (P63092 whole entry): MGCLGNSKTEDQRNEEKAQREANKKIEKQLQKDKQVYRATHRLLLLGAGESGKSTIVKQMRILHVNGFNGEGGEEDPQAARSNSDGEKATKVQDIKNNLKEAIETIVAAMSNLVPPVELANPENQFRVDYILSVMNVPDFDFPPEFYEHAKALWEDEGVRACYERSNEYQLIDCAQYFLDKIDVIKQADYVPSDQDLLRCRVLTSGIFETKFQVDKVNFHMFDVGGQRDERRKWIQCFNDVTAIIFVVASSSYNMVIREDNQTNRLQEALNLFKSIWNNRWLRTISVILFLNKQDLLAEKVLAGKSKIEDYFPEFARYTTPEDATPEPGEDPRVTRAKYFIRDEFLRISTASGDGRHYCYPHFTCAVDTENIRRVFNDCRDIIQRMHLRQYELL
heterotrimeric G protein consisting of human Gαs, bovine Gβ1, and human Gγ2, sequence (P62871 whole entry): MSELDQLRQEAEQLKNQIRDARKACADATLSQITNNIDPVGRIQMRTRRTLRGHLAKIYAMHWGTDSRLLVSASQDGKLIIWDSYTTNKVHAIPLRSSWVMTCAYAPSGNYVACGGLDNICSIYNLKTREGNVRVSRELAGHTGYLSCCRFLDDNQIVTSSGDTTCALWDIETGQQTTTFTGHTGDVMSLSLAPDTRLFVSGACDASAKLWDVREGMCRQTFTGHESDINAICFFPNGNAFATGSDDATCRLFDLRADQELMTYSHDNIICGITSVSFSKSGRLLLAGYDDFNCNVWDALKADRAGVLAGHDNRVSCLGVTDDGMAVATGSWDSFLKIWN
heterotrimeric G protein consisting of human Gαs, bovine Gβ1, and human Gγ2, sequence (P59768 whole entry): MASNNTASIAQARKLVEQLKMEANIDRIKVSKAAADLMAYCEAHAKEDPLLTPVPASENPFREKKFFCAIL
Adenosine A2A receptor (A2AAR), human, residues 1 to 316, with the M1A/M4T mutation, reconstituted in rHDLs (nanodiscs) (human), sequence (P29274 1-316 M1A/M4T): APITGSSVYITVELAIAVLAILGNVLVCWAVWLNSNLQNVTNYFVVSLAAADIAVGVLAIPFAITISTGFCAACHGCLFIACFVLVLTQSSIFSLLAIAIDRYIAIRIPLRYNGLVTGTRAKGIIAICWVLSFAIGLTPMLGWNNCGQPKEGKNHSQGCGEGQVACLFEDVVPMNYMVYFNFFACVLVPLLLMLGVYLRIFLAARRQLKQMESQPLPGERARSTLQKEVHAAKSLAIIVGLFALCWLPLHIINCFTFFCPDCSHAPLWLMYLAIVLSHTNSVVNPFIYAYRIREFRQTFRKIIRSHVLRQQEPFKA

- initial [35S]-GTPγS binding rate, A2AAR in rHDL(ARA) against A2AAR in rHDL(POPC/POPG), full agonist [1]: 1.1 times
- initial [35S]-GTPγS binding rate, A2AAR in rHDL(DHA) against A2AAR in rHDL(POPC/POPG), full agonist [1]: 1.88 times
- initial [35S]-GTPγS binding rate, A2AAR in rHDL(DHA) in which DHA constitutes 15% of the acyl chains, against A2AAR in rHDL(POPC/POPG) [2]: 1.29 times
- GDP/GTP reaction rate, A2AAR in rHDL(DHA) against A2AAR in rHDL(ARA) [3]: 1.7 fold
Substance: heterotrimeric G protein consisting of human Gαs, bovine Gβ1, and human Gγ2 (from UniProt P63092 1-394; P62871 1-340; P59768 1-71) (complex)
